In paper PMC10398351, “Structural and molecular insight into antibody recognition of dynamic neoepitopes in membrane tethered MUC1 of pancreatic cancer cells and secreted exosomes” (RSC Chemical Biology, 2023):
“Also recorded” adds a separate entry of the source.

How the values were obtained:
[1] = target: MUC1 bearing ST antigen at the immunodominant DTR motif; test: SPR affinity of SN-131 with MUC1 bearing ST antigen; assay type: binding; settings: SN-131 with MUC1 bearing ST antigen at the immunodominant DTR motif; abstract
Experimental: The binding affinity of SN-131 Fab with MUC1 TRD models was measured by using a Biacore 2000 surface plasmon resonance (SPR) instrument (GE Healthcare). Synthetic MUC1 TRD models 2–4 with a C-terminal cysteine residue were immobilized on a CM5 chip (GE Healthcare) by a standard protocol of the maleimide coupling. The SN-131 Fab was injected over the surface of the immobilized MUC1 TRD models 2–4 and three kinetic parameters, the association rate constant (kon), the dissociation rate constant (koff), and the equilibrium dissociation constant (KD) were obtained with BIAevaluation 4.1 software (GE Healthcare) using a bivalent binding model. Isothermal titration calorimetry (ITC) experiments were also carried out to determine the thermodynamic parameters of the interaction between SN-131 and non-glycosylated-/Tn-MUC1 TRDs.7 All experiments and analyses were performed by using nano ITC (TA Instrument) and Nanoanalyze based on as independent model.

PANC-1 cells = test: Live cell imaging of Alexa488-conjugated SN-131 on PANC-1 cells; assay type: cell-based, human; settings: Alexa 488 conjugated SN-131 10 μg mL−1, 2 h at 37 °C
Experimental: PANC-1 cells (5 × 10^4 cells per well) were cultured with 10% FBS and 2 mM L-glutamine on an 8-well imaging plate (Fischer Scientific) for 48 h in 5% CO2 at 37 °C. Then, Alexa 488 conjugated SN-131 (10 μg mL^−1), 10 μM MUC1-5ST (8), or MAG (5 μg mL^−1) dissolved in Opti-MEM medium (gibco) was co-incubated with PANC-1 cells for 2 h in 5% CO2 at 37 °C. Cells were washed with Opti-MEM and stained with Hoechst 33342 (2.5 ng mL^−1 in Opti-MEM) for 30 min. […] The pictures were imaged with 60xlens and the following filter set (Blue: #OP-66843 Excitation 360/40, Emission 460/50, Green: #OP-66836, Excitation 470/40, Emission 535/50, Red: #OP-66837, Excitation 540/25, Emission […]). Imaging pictures were analysed by BZ-II Analyzer software (Keyence, Osaka).

MUC1 TRD [2] = test: Epitope mapping of SN-131 on glycopeptide microarray; assay type: binding; settings: SN-131 1 µg/mL, 2 h at room temperature, Cy3 labeled anti-mouse IgG
Experimental: 100 mM solutions of the synthetic glycopeptides capped with ketone-linker at the N-terminus (5–9) dissolved in 25 mM sodium acetate buffer (pH 5.0) containing 0.005% Tween-20 (w/v) were robotically printed on plastic slides coated with a copolymer carrying aminooxy-/phosphorylcholine functional groups according to the protocol reported previously.[20,22,24] Detailed conditions for the binding assay are described in the ESI. ^† […]
as Additional Data in Supporting Information. Compounds 3 , 5, and 6 were synthesized previously5,7,8 and available for the present study.
Glycopeptide microarray. 100 mM solutions of the synthetic glycopeptides capped with ketone-linker at N -terminus (5~9) dissolved in 25 mM sodium acetate buffer (pH 5.0) containing 0.005% Tween- 20 (w/v) were robotically printed on plastic slides coated with a copolymer carrying aminooxy-/phosphorylcholine functional groups according to the protocol reported previ ousl y.5,7-9 For the epitope analysis of SN-131, antibody solutions (1 µg/mL) were added to each well of the slides. After incubation for 2 h at room temperature, the slides were rinsed and added with Cy3 labeled anti-mouse IgG polyclonal antibody (1 µg/mL). After washing, fluorescence of the wells were measured using a GlycoStation 1200 system and analysed with the ArrayVision […]
Anti-MU C1 mA b (SN -131). […]

MUC1 TRD [3] = settings: cited from earlier work
Source text: By using a robust synthetic glycopeptide library,[21–24] we have established a straightforward approach to antibodies recognizing cancer-relevant glycopeptidic epitopes modified with aberrant O-glycans, namely “dynamic neoepitopes”, found in the MUC1 TRD (Fig. 2a).[19,20] […] We considered that SN-131 is a highly potential anti-MUC1 antibody because this antibody binds specifically MUC1 TRD having core 1 type O-glycans overexpressed in many cancers including pancreatic cancer but not core 2 type O-glycans found in normal cells. However, the structural and molecular basis of the epitope recognition by SN-131 remain to be fully understood. We needed to investi ...

Kd [1]: 1.58 nM
B1: SN-131: anti-MUC1 mAb (clone 1B2, IgG2a) binding MUC1 TRD with Tn, T and ST antigens at the DTR motif (antibody, V domains shown)
VH: QVQLQQSGAELARPGASVKLSCKASGYTFTNYGLSWVKQRTGQGLEWIGENHPGSGIIYHNEKFRGKATLTADKSSSTAYVQLSSLTSEDSAVYFCARSSGTRGFAYWGQGTLVTVSA
VL: DVLMTQTPLSLPVSLGDQASISCRSSQSIVHSNGNTYLEWYLQKPGQSPKLLIYKVSNRFSGVPDRFSGSGSGTDFTLKISRVEAEDLGVYYCFQGSHGPWTFGGGTKLEIK
binding to PANC-1 cell surface MUC1 TRD (PANC-1 cells): binds strongly
binding of SN-131 to MUC1 TRD glycoforms (epitope mapping, in words) (MUC1 TRD [2]): binds MUC1 TRD with Tn, T, and ST antigens attached to the immunodominant DTR motif; also recorded: did not bind to non-glycosylated MUC1 TRD
glycoform specificity of binding to MUC1 TRD (MUC1 TRD [3]): does not bind to MUC1 TRD when the threonine residue of this immunodominant region is modified with STn, dST, or core 2-type mature complex O-glycan structures
